± gives the half width of the 95% confidence interval.
Key:
[1] = folding stability dG unfold from trypsin proteolysis; higher = more stable
Outline: (§1)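 Designed mini-proteins with no cysteine and under 80 residues were kept only if AlphaFold2 dimer inter-PAE was above 15. In a PA-tagged cDNA display construct, they were digested with trypsin and chymotrypsin and then sequenced. K50 was inferred by Bayesian fitting of counts, and unfolding free energy was derived per protease or combined against a sequence-predicted unfolded-state K50 and a shared folded-state K50.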

[2] = folding stability dG unfold (combined trypsin and chymotrypsin); higher = more stable
Outline: as §1

[3] = folding stability dG unfold from chymotrypsin proteolysis; higher = more stable
Outline: as §1

## SAGGSAGGSYWFSITFKINFWVIDGNRIHPVPIEITILIKIPPIPPDEMKPEPTPDGEPKYDFSAGGSAGGS [r12_1031_TrROS]
[1]
  folding stability dG unfold: 2.73 ± 0.15 kcal/mol
[2]
  folding stability dG unfold: 4.29 ± 0.23 kcal/mol
[3]
  folding stability dG unfold: 4.64 ± 0.2 kcal/mol

## SAGGSAGGSYYMIEIEFPDTGQRITFPFKSLEEAKEFLPPGAPIREIEVQPIKPPVDPEQQNESAGGSAGGS [r12_851_TrROS]
[1]
  folding stability dG unfold: 0.809 ± 0.054 kcal/mol
[2]
  folding stability dG unfold: 1.24 ± 0.11 kcal/mol
[3]
  folding stability dG unfold: 1.31 ± 0.12 kcal/mol

## SAGGSAGGTATLVLPAAAFPSRPDGSLGLEEIRDVARPIAQEAFGTDDITLDVESHPDGFVTITFSSAGGSA [r15_562_TrMRF]
[1]
  folding stability dG unfold: 0.642 ± 0.027 kcal/mol
[2]
  folding stability dG unfold: 0.519 ± 0.072 kcal/mol
[3]
  folding stability dG unfold: 0.197 ± 0.17 kcal/mol

## SAGGSAGGTISFPNATATITVEENSVTITVTNADGQPTTFTIPLPIPKAKPFTLPDGTKLYLIASAGGSAGG [r6_806_TrMRF]
[1]
  folding stability dG unfold: 1.94 ± 0.083 kcal/mol
[2]
  folding stability dG unfold: 2.31 ± 0.21 kcal/mol
[3]
  folding stability dG unfold: 2.31 ± 0.16 kcal/mol

## SAGGSAGGTSVADELEEEFKAKGYPAEVTVTKLPDDTTLVTVTVTDPKTGKSTTTTVTVSPAEASAGGSAGG [r6_692_JUSTAS]
[1]
  folding stability dG unfold: 1.02 ± 0.076 kcal/mol
[2]
  folding stability dG unfold: 0.861 ± 0.16 kcal/mol
[3]
  folding stability dG unfold: 1.01 ± 0.12 kcal/mol

## SAGGSAGGVERIKKLLEELGAEVVKVEKLENGKTLIYIKVKSEEQREALKALLPEEDIEIIEPESAGGSAGG [r6_83_TrROS_Hall]
[1]
  folding stability dG unfold: 4.69 ± 0.58 kcal/mol
[2]
  folding stability dG unfold: 4.43 ± 0.17 kcal/mol
[3]
  folding stability dG unfold: 4.47 ± 0.17 kcal/mol

## SAGGSAGGVKEALEELLKKLKPGEKKTITLEIEVDGKLVKIEIEVLPDGEIKITKIEEIPKEDLSAGGSAGG [r6_87_TrROS_Hall]
[1]
  folding stability dG unfold: 2.97 ± 0.12 kcal/mol
[2]
  folding stability dG unfold: 2.47 ± 0.16 kcal/mol
[3]
  folding stability dG unfold: 1.95 ± 0.096 kcal/mol

## SAGGSAGGVKIEVETRTETLPDGSTRTVMRVKIELPAPPPPPPPPTRTVTETTEDGETRTTTVRSAGGSAGG [r6_778_TrROS_Hall]
[1]
  folding stability dG unfold: 0.626 ± 0.13 kcal/mol
[2]
  folding stability dG unfold: 1.64 ± 0.17 kcal/mol
[3]
  folding stability dG unfold: 2.07 ± 0.066 kcal/mol

## SAGGSAGGVPEVVEEVAREVDPRIVTRVEVRVFEPPPEYRLVVVVVELRLPTERRFVPRVVRLRSAGGSAGG [r6_630_TrMRF]
[1]
  folding stability dG unfold: 2.85 ± 0.19 kcal/mol
[2]
  folding stability dG unfold: 3.25 ± 0.31 kcal/mol
[3]
  folding stability dG unfold: 3.49 ± 0.066 kcal/mol

## SAGGSAGGVVPLEELAKRLGWSPEFLRELEEKGIKVELERVTPDKVVVTLTEPGTGETKTIELPSAGGSAGG [r6_969_JUSTAS]
[1]
  folding stability dG unfold: 3.19 ± 0.24 kcal/mol
[2]
  folding stability dG unfold: 3.08 ± 0.17 kcal/mol
[3]
  folding stability dG unfold: 2.82 ± 0.13 kcal/mol

## SAGGSAGGWIEIDPETGTIEIWMPPNDIEPLVDEIAEELGWKVKVKVEPNPEGWVRHTITIPPKSAGGSAGG [r6_419_TrROS]
[1]
  folding stability dG unfold: -0.109 ± 0.087 kcal/mol
[2]
  folding stability dG unfold: 0.39 ± 0.23 kcal/mol
[3]
  folding stability dG unfold: 0.281 ± 0.35 kcal/mol

## SAGGSAGGWIEINILVPLKPGQTPSELADEIAQEFQNQHGWEIKIDDVYPTDNYVWHKIEITPPSAGGSAGG [r6_639_TrROS]
[1]
  folding stability dG unfold: 0.864 ± 0.031 kcal/mol
[2]
  folding stability dG unfold: 1.29 ± 0.083 kcal/mol
[3]
  folding stability dG unfold: 1.49 ± 0.055 kcal/mol

## SAGGSAGGWIIRIHFPNGHEHTFKIKSPEEAKDRIMDHHGMPPDKIPPETIKDVEIIPPDAMKESAGGSAGG [r6_588_TrROS]
[1]
  folding stability dG unfold: -0.0377 ± 0.11 kcal/mol
[2]
  folding stability dG unfold: 0.434 ± 0.18 kcal/mol
[3]
  folding stability dG unfold: 0.604 ± 0.12 kcal/mol

## SAGGSAGGWITLDLIKELAREAMNQAQLNGMENVPIEIRWPDGWRIKIEINMNKVEVDVQPWNDSAGGSAGG [r6_270_TrROS]
[1]
  folding stability dG unfold: 1.9 ± 0.11 kcal/mol
[2]
  folding stability dG unfold: 2.4 ± 0.15 kcal/mol
[3]
  folding stability dG unfold: 2.57 ± 0.079 kcal/mol

## SAGGSAGGWKIIEVDPKKGVVMIEMDPEEGNWYVRVPNGPIQRFDSPEEIEEKFGFPVEIYPLPSAGGSAGG [r6_753_TrROS]
[1]
  folding stability dG unfold: 1.3 ± 0.098 kcal/mol
[2]
  folding stability dG unfold: 1.14 ± 0.17 kcal/mol
[3]
  folding stability dG unfold: 0.816 ± 0.092 kcal/mol

## SAGGSAGGYWKVEIKNGMTFSIPGMTLDEAKNHARWHGFPMPIDKIEIEPVKPPPPPPKDPDDQSAGGSAGG [r6_688_TrROS]
[1]
  folding stability dG unfold: 2.27 ± 0.14 kcal/mol
[2]
  folding stability dG unfold: 2.75 ± 0.35 kcal/mol
[3]
  folding stability dG unfold: 2.95 ± 0.22 kcal/mol

## SAGGSAGGYWMISVKIYDPEDGKPIAQMTFMFDSPEEAERIVEEIADALPPGYRVEVDIHPIPNSAGGSAGG [r6_690_TrROS]
[1]
  folding stability dG unfold: 3.82 ± 0.12 kcal/mol
[2]
  folding stability dG unfold: 4.85 ± 0.16 kcal/mol
[3]
  folding stability dG unfold: 4.99 ± 0.14 kcal/mol

## SAGGSAGIEERLKKLAEELGLEVKVTKVEVKVDGKEEVVVEVEVEPPPPPVEVKELSEEERKKAEESAGGSA [r15_256_TrROS_Hall]
[1]
  folding stability dG unfold: 1.27 ± 0.21 kcal/mol
[2]
  folding stability dG unfold: 1.13 ± 0.23 kcal/mol
[3]
  folding stability dG unfold: 0.99 ± 0.19 kcal/mol

## SAGGSAGIEVHPEGTVRIEVGGRSLTVTPADAVDVTQEGDKIVVTITRRDADGTPVGTLPVTVELASAGGSA [r15_424_JUSTAS]
[1]
  folding stability dG unfold: -0.75 ± 0.088 kcal/mol
[2]
  folding stability dG unfold: 0.52 ± 0.045 kcal/mol
[3]
  folding stability dG unfold: 0.835 ± 0.018 kcal/mol

## SAGGSAGLPEAIAEAIARELQAEPGYELDVEAEVDPETGTLHIRARVRLPDDDTWFELEITVPLPASAGGSA [r15_464_TrMRF]
[1]
  folding stability dG unfold: 1.75 ± 0.084 kcal/mol
[2]
  folding stability dG unfold: 2.93 ± 0.13 kcal/mol
[3]
  folding stability dG unfold: 3.22 ± 0.12 kcal/mol

## SAGGSAGMDPSKVSLSISTKTYTDTATGRKVEELYFEGSGKKVTVTTLPDGTKIVTYENGVVIEVESAGGSA [r15_617_JUSTAS]
[1]
  folding stability dG unfold: 0.758 ± 0.024 kcal/mol
[2]
  folding stability dG unfold: 0.314 ± 0.054 kcal/mol
[3]
  folding stability dG unfold: -0.672 ± 0.24 kcal/mol

## SAGGSAGMIEVEIRPTPEGGYEVLVKFYGPGGVEVEEKKYRFGSEEEAKKFLEELAKKNGYSVKIRSAGGSA [r15_242_JUSTAS]
[1]
  folding stability dG unfold: 2.11 ± 0.056 kcal/mol
[2]
  folding stability dG unfold: 3.3 ± 0.067 kcal/mol
[3]
  folding stability dG unfold: 3.74 ± 0.027 kcal/mol

## SAGGSAGMMKVTTTPVSADTVRVTVTVPGGPFTVTVTQNGVPLLTRTVPADATLTITLPPNATVVGSAGGSA [r15_581_JUSTAS]
[1]
  folding stability dG unfold: 1.91 ± 0.098 kcal/mol
[2]
  folding stability dG unfold: 1.94 ± 0.14 kcal/mol
[3]
  folding stability dG unfold: 1.94 ± 0.078 kcal/mol

## SAGGSAGMMPTKITVTLTLPPDAPDVEAVAERLAAELGVEVSNAEVLEVRRLPDGSREVVIELTLLSAGGSA [r15_654_JUSTAS]
[1]
  folding stability dG unfold: 4.2 ± 0.18 kcal/mol
[2]
  folding stability dG unfold: 4.17 ± 0.1 kcal/mol
[3]
  folding stability dG unfold: 4.18 ± 0.094 kcal/mol

## SAGGSAGMNSEITLTIPVPHPRDEEGRVLPLSPEAIEKELKEKGYNVKIKEVKTSPSTITVTLKIISAGGSA [r15_225_JUSTAS]
[1]
  folding stability dG unfold: 0.864 ± 0.053 kcal/mol
[2]
  folding stability dG unfold: 0.957 ± 0.072 kcal/mol
[3]
  folding stability dG unfold: 1 ± 0.082 kcal/mol

## SAGGSAGMPSVPVERTVTVTVVDAEGNLVGTVTLTLTFPGGVSEEEREAAIAAAIEAAVPPAGVVSSAGGSA [r15_310_JUSTAS]
[1]
  folding stability dG unfold: 2.56 ± 0.077 kcal/mol
[2]
  folding stability dG unfold: 2.41 ± 0.076 kcal/mol
[3]
  folding stability dG unfold: 2.26 ± 0.059 kcal/mol

## SAGGSAGMSTVTVPLTVELVDPNNGNLKKVIERPLTVPAELSLDEVKEIVREEAKKEGLTIAKILLSAGGSA [r15_195_JUSTAS]
[1]
  folding stability dG unfold: -0.122 ± 0.21 kcal/mol
[2]
  folding stability dG unfold: 0.00724 ± 0.13 kcal/mol
[3]
  folding stability dG unfold: -0.0556 ± 0.092 kcal/mol

## SAGGSAGMVLVRTPDGEVLLLPFTSPEEAEEALERLTGGRLVSVRLEGTPGDRLLLVAEVERPPGGSAGGSA [r15_447_TrMRF]
[1]
  folding stability dG unfold: 1.88 ± 0.045 kcal/mol
[2]
  folding stability dG unfold: 2.06 ± 0.11 kcal/mol
[3]
  folding stability dG unfold: 2.16 ± 0.059 kcal/mol

## SAGGSAGMVVEVREFEIEPDEDKKIKATLERYETPEGPRYVLTIEDPSKNEKKSYPLEPGVDFKKLSAGGSA [r15_75_JUSTAS]
[1]
  folding stability dG unfold: -0.0245 ± 0.26 kcal/mol
[2]
  folding stability dG unfold: 0.488 ± 0.2 kcal/mol
[3]
  folding stability dG unfold: 0.681 ± 0.14 kcal/mol

## SAGGSAGPLPNEKVEVTLTIPLNVLVLDEDGEPLTPEEIARRVRELFSDVSVTLEPGDRLVITLTESAGGSA [r15_645_TrMRF]
[1]
  folding stability dG unfold: 2.006 ± 0.015 kcal/mol
[2]
  folding stability dG unfold: 1.85 ± 0.049 kcal/mol
[3]
  folding stability dG unfold: 1.7 ± 0.022 kcal/mol

## SAGGSAGRSRPLRLRFENPENGLRTEVELRVFEIGDYRVILLRERTYHPDTPGLSERDLLILLPPESAGGSA [r15_960_TrMRF]
[1]
  folding stability dG unfold: 3.03 ± 0.058 kcal/mol
[2]
  folding stability dG unfold: 3.35 ± 0.1 kcal/mol
[3]
  folding stability dG unfold: 3.508 ± 0.023 kcal/mol

## SAGGSAGSMSEIEGLTVLEEREEPDPATGTTVPTLVVRDPEKGELYVITATTDPATGKPTYSFDLVSAGGSA [r15_170_JUSTAS]
[1]
  folding stability dG unfold: 0.871 ± 0.03 kcal/mol
[2]
  folding stability dG unfold: 0.595 ± 0.047 kcal/mol
[3]
  folding stability dG unfold: 0.0106 ± 0.072 kcal/mol

## SAGGSAGSYLVRVRIRRPEDGKELADAVFEVPPDEPVTAEAILKELGIPPEEAKNIEIEVEVFELGSAGGSA [r15_665_TrMRF]
[1]
  folding stability dG unfold: 2.26 ± 0.049 kcal/mol
[2]
  folding stability dG unfold: 2.75 ± 0.061 kcal/mol
[3]
  folding stability dG unfold: 3.05 ± 0.031 kcal/mol

## SAGGSAGVSTSKGSSVTTLKIDYKDDVVIKYSYNPSTGTVYTTVIDPETGNPVTVETYSVSPDVPLSAGGSA [r15_425_JUSTAS]
[1]
  folding stability dG unfold: 0.649 ± 0.014 kcal/mol
[2]
  folding stability dG unfold: 1.02 ± 0.037 kcal/mol
[3]
  folding stability dG unfold: 1.26 ± 0.084 kcal/mol

## SAGGSAIIVIEIEMGGKPVPIMIPIPPNMPPEDAREEIKELAKQEVRDPDGKPVRVKIEVIPPPPESAGGSA [r15_246_TrROS]
[1]
  folding stability dG unfold: 0.163 ± 0.059 kcal/mol
[2]
  folding stability dG unfold: 0.626 ± 0.11 kcal/mol
[3]
  folding stability dG unfold: 0.945 ± 0.031 kcal/mol

## SAGGSAIKVSTSPSDVSVSKVPLPNGETLTIEVSSNGETTVTKTSPTPGTPTTTTVPGASVEELLESAGGSA [r15_406_JUSTAS]
[1]
  folding stability dG unfold: 0.331 ± 0.034 kcal/mol
[2]
  folding stability dG unfold: 0.762 ± 0.031 kcal/mol
[3]
  folding stability dG unfold: 0.974 ± 0.02 kcal/mol

From the supplement of paper PMC12764529
